The record followed here is IntAct's records for PubMed 22579247.

The labels stand for the following.
B1: Abscisic acid receptor PYL3 (Arabidopsis thaliana (Mouse-ear cress)), Q9SSM7 (parent)
chain: MNLAPIHDPSSSSTTTTSSSTPYGLTKDEFSTLDSIIRTHHTFPRSPNTCTSLIAHRVDAPAHAIWRFVRDFANPNKYKHFIKSCTIRVNGNGIKEIKVGTIREVSVVSGLPASTSVEILEVLDEEKRILSFRVLGGEHRLNNYRSVTSVNEFVVLEKDKKKRVYSVVLESYIVDIPQGNTEEDTRMFVDTVVKSNLQNLAVISTASPT

The variants in the assay derive from B1. As to conditions: with HAB1, Q9CAJ0.
MNLAPIHDPSSSSTTTTSSSTPYGLTKDEFSTLDSIIRTHHTFPRSPNTCTSLIAHRVDAPAHAIWRFVRDFANPNKYKHFIKSCTIRVNGNGIKEIKVGTIREVSVVSGLPASTSVEILEVLDEEKRILSFRVLGGEHRLNNYRSVTSVNEFVVLEKDKKKRVYSVVLESYIVDIPQGNTEEDTRMFVDTVVKLNLQNLAVISTASPT [S195L]: the “effect of a mutation on the interaction” value is reported as “increasing interaction strength”. On to MNLAPIHDPSSSSTTTTSSSTPYGLTKDEFSTLDSIIRTHHTFPRSPNTCTSLIAHRVDAPAHAIWRFVRDFANPNKYKHAIKSCTIRVNGNGIKEIKVGTIREVSVVSGLPASTSVEILEVLDEEKRILSFRVLGGEHRLNNYRSVTSVNEFVVLEKDKKKRVYSVVLESYIVDIPQGNTEEDTRMFVDTVVKSNLQNLAAASTASPT [F81A;V202A;I203A], for which the “effect of a mutation on the interaction” value is “increasing interaction strength”.
